Test results: publication PMC1906764

Tests used:
[1] = 4-MU-6S-Palm-βGlc fluorometric assay, COS-1 lysates; settings: glycan lost; control: wild type
[2] = 35S-Cys pulse-chase, immunoprecipitation from COS-1 media; settings: glycan lost; control: wild type
[3] = immunofluorescence, LAMP-1 co-staining, transfected cells; settings: glycan lost; control: wild type
PPT1 F85del, P50897 = target: T1, PPT1 F85del, P50897; experiment: GFP pull-down (co-immunoprecipitation with anti-GFP-agarose beads, anti-PPT1 immunoblot, quantified); settings: chain shown with the change; COS-1 cells, lysed 48 h post-transfection; single experiment; parent: est. 100; read off a plot
T1 chain: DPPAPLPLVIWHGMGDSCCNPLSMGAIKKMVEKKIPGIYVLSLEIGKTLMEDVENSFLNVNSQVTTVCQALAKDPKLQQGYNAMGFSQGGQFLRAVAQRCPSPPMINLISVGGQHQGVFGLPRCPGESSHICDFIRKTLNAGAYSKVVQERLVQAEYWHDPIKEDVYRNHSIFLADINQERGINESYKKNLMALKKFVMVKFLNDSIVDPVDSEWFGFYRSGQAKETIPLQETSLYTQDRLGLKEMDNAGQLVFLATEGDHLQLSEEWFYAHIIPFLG

Binder	enzymatic activity, percent of wt [1] [%]	expression_or_secretion [2]	localisation_or_trafficking [3]	enzymatic_activity, percent_of_wt [1]	percent of parent (PPT1 F85del, P50897)
palmitoyl protein thioesterase 1 (PPT1): S214A (protein) parent chain: MASPGCLWLLAVALLPWTCASRALQHLDPPAPLPLVIWHGMGDSCCNPLSMGAIKKMVEKKIPGIYVLSLEIGKTLMEDVENSFFLNVNSQVTTVCQALAKDPKLQQGYNAMGFSQGGQFLRAVAQRCPSPPMINLISVGGQHQGVFGLPRCPGESSHICDFIRKTLNAGAYSKVVQERLVQAEYWHDPIKEDVYRNHSIFLADINQERGINESYKKNLMALKKFVMVKFLNDSIVDPVDSEWFGFYRSGQAKETIPLQETSLYTQDRLGLKEMDNAGQLVFLATEGDHLQLSEEWFYAHIIPFLG	31	no change	no change	–	–
palmitoyl protein thioesterase 1 (PPT1): S234A (protein) parent chain: MASPGCLWLLAVALLPWTCASRALQHLDPPAPLPLVIWHGMGDSCCNPLSMGAIKKMVEKKIPGIYVLSLEIGKTLMEDVENSFFLNVNSQVTTVCQALAKDPKLQQGYNAMGFSQGGQFLRAVAQRCPSPPMINLISVGGQHQGVFGLPRCPGESSHICDFIRKTLNAGAYSKVVQERLVQAEYWHDPIKEDVYRNHSIFLADINQERGINESYKKNLMALKKFVMVKFLNDSIVDPVDSEWFGFYRSGQAKETIPLQETSLYTQDRLGLKEMDNAGQLVFLATEGDHLQLSEEWFYAHIIPFLG	–	decreases	decreases	–	–
palmitoyl protein thioesterase 1 (PPT1): S199A (protein) parent chain: MASPGCLWLLAVALLPWTCASRALQHLDPPAPLPLVIWHGMGDSCCNPLSMGAIKKMVEKKIPGIYVLSLEIGKTLMEDVENSFFLNVNSQVTTVCQALAKDPKLQQGYNAMGFSQGGQFLRAVAQRCPSPPMINLISVGGQHQGVFGLPRCPGESSHICDFIRKTLNAGAYSKVVQERLVQAEYWHDPIKEDVYRNHSIFLADINQERGINESYKKNLMALKKFVMVKFLNDSIVDPVDSEWFGFYRSGQAKETIPLQETSLYTQDRLGLKEMDNAGQLVFLATEGDHLQLSEEWFYAHIIPFLG	–	abolishes	decreases	–	–
palmitoyl protein thioesterase 1 (PPT1): S199A + S214A (protein) parent chain: MASPGCLWLLAVALLPWTCASRALQHLDPPAPLPLVIWHGMGDSCCNPLSMGAIKKMVEKKIPGIYVLSLEIGKTLMEDVENSFFLNVNSQVTTVCQALAKDPKLQQGYNAMGFSQGGQFLRAVAQRCPSPPMINLISVGGQHQGVFGLPRCPGESSHICDFIRKTLNAGAYSKVVQERLVQAEYWHDPIKEDVYRNHSIFLADINQERGINESYKKNLMALKKFVMVKFLNDSIVDPVDSEWFGFYRSGQAKETIPLQETSLYTQDRLGLKEMDNAGQLVFLATEGDHLQLSEEWFYAHIIPFLG	–	abolishes	–	decreases	–
palmitoyl protein thioesterase 1 (PPT1), wild type, P50897 F85del (protein) DPPAPLPLVIWHGMGDSCCNPLSMGAIKKMVEKKIPGIYVLSLEIGKTLMEDVENSFLNVNSQVTTVCQALAKDPKLQQGYNAMGFSQGGQFLRAVAQRCPSPPMINLISVGGQHQGVFGLPRCPGESSHICDFIRKTLNAGAYSKVVQERLVQAEYWHDPIKEDVYRNHSIFLADINQERGINESYKKNLMALKKFVMVKFLNDSIVDPVDSEWFGFYRSGQAKETIPLQETSLYTQDRLGLKEMDNAGQLVFLATEGDHLQLSEEWFYAHIIPFLG	–	–	–	–	150 % of WT
